Reference: publication doi:10.1101/2020.06.09.141986

Molecular target: Aldob (aldolase B) (UniProt P05062)
Experiment: anti-Flag co-IP, immunoblot
Details: reference: Akt1 wild type

Substance	binding against the reference (sites S473)	binding against the reference (sites T308)
Akt1 (from UniProt P31749) Akt1-S473A	weaker	–
Akt1 (from UniProt P31749) Akt1-T308A	–	weaker
